Columns and labels:
Test in all cases: cell-based or functional assay
NEK7(h) (human) = NEK7(h) (human) (UniProt Q8TDX7)
ARK5(h) (human) = ARK5(h) (human) (UniProt O60285)
IRAK1(h) (human) = IRAK1(h) (human) (UniProt P51617)
CaMKIδ(h) (human) = CaMKIδ(h) (human) (UniProt Q8IU85)
PKCδ(h) (human) = PKCδ(h) (human) (UniProt Q05655)
ZIPK(h) (human) = ZIPK(h) (human) (UniProt O43293)
cKit(h) (human) = cKit(h) (human) (UniProt P10721)
PKG1α(h) (human) = PKG1α(h) (human) (UniProt Q13976)
PASK(h) (human) = PASK(h) (human) (UniProt Q96RG2)
GCK(h) (human) = GCK(h) (human) (UniProt Q12851)
IR(h), activated (human) = IR(h), activated (human) (UniProt P06213)
SIK(h) (human) = SIK(h) (human) (UniProt P57059)
Fyn(h) (human) = Fyn(h) (human) (UniProt P06241)
HIPK3(h) (human) = HIPK3(h) (human) (UniProt Q9H422)
Txk(h) (human) = Txk(h) (human) (UniProt P42681)
Ab1(H396P)(h) (human) = Ab1(H396P)(h) (human) (UniProt P00519)
[1] = target: CDK7/cyclinH/MAT1(h) (human) (UniProt P50613)
TAO2(h) (human) = TAO2(h) (human) (UniProt Q9UL54)
Pim-1(h) (human) = Pim-1(h) (human) (UniProt P11309)
Met(Y1248D)(h) (human) = Met(Y1248D)(h) (human) (UniProt P08581)
PAR-1Bα(h) (human) = PAR-1Bα(h) (human) (UniProt Q7KZI7)
LOK(h) (human) = LOK(h) (human) (UniProt O94804)
WNK2(h) (human) = WNK2(h) (human) (UniProt Q9Y3S1)
BrSK1(h) (human) = BrSK1(h) (human) (UniProt Q8TDC3)
CHK1(h) (human) = CHK1(h) (human) (UniProt O14757)
IKKβ(h) (human) = IKKβ(h) (human) (UniProt O14920)
MST3(h) (human) = MST3(h) (human) (UniProt Q9Y6E0)
PKCη(h) (human) = PKCη(h) (human) (UniProt P24723)
PKG1β(h) (human) = PKG1β(h) (human) (UniProt Q13976)
ErbB4(h) (human) = ErbB4(h) (human) (UniProt Q15303)
Lck(h) (human) = Lck(h) (human) (UniProt P06239)
CHK2(I157T)(h) (human) = CHK2(I157T)(h) (human) (UniProt O96017)
FGFR2(h) (human) = FGFR2(h) (human) (UniProt P21802)
EphA7(h) (human) = EphA7(h) (human) (UniProt Q15375)
MAPKAP-K2(h) (human) = MAPKAP-K2(h) (human) (UniProt P49137)
JNK3(h) (human) = JNK3(h) (human) (UniProt P53779)
MELK(h) (human) = MELK(h) (human) (UniProt Q14680)
mTOR/FKBP12(h) (human) = mTOR/FKBP12(h) (human) (UniProt P42345)
ULK2(h) (human) = ULK2(h) (human) (UniProt Q8IYT8)
EphB4(h) (human) = EphB4(h) (human) (UniProt P54760)
[2] = target: EGFR(T790M,L858R)(h) (human) (UniProt P00533)
EphB3(h) (human) = EphB3(h) (human) (UniProt P54753)
Ros(h) (human) = Ros(h) (human) (UniProt P08922)
PDGFRα(D842V)(h) (human) = PDGFRα(D842V)(h) (human) (UniProt P16234)
PKBβ(h) (human) = PKBβ(h) (human) (UniProt P31751)
CDK5/p25(h) (human) = CDK5/p25(h) (human) (UniProt Q00535)
Ret(V804M)(h) (human) = Ret(V804M)(h) (human) (UniProt P07949)
EphA8(h) (human) = EphA8(h) (human) (UniProt P29322)
Pyk2(h) (human) = Pyk2(h) (human) (UniProt Q14289)
Met(h) (human) = Met(h) (human) (UniProt P08581)
TBK1(h) (human) = TBK1(h) (human) (UniProt Q9UHD2)
Tec(h)activated (human) = Tec(h)activated (human) (UniProt P42680)
CLK3(h) (human) = CLK3(h) (human) (UniProt P49761)
ULK3(h) (human) = ULK3(h) (human) (UniProt Q6PHR2)
GRK6(h) (human) = GRK6(h) (human) (UniProt P43250)
Met(Y1248C)(h) (human) = Met(Y1248C)(h) (human) (UniProt P08581)

IRAK1(h) (human), sequence (P51617 194-712 limits assumed): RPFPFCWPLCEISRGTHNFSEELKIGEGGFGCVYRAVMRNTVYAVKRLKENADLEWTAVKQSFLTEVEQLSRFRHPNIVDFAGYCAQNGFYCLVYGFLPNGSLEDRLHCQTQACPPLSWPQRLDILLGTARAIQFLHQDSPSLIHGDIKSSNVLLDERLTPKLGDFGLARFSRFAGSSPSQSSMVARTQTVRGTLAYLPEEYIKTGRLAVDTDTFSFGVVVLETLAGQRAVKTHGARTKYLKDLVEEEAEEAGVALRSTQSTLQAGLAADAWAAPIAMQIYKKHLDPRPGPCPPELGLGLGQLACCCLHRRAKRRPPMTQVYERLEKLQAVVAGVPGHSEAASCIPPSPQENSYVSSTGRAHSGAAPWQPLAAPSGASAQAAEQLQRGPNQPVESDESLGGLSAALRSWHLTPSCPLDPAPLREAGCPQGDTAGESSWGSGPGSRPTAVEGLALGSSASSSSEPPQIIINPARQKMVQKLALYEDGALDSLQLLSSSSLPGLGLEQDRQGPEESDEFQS
EphA8(h) (human), sequence (P29322 564-1005 limits assumed): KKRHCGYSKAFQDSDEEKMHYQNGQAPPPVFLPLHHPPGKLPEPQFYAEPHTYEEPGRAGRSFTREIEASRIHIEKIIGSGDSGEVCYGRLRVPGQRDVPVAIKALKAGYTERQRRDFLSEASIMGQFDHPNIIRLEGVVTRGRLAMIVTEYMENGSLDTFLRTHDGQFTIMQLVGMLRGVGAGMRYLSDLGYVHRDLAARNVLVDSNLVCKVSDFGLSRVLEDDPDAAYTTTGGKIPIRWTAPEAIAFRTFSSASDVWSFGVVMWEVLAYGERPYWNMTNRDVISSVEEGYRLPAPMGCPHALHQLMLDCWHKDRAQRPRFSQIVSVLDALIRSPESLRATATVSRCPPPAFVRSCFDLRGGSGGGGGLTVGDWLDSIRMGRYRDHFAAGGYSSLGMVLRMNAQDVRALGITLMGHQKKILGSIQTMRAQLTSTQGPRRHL
EphB3(h) (human), sequence (P54753 581-998 limits assumed): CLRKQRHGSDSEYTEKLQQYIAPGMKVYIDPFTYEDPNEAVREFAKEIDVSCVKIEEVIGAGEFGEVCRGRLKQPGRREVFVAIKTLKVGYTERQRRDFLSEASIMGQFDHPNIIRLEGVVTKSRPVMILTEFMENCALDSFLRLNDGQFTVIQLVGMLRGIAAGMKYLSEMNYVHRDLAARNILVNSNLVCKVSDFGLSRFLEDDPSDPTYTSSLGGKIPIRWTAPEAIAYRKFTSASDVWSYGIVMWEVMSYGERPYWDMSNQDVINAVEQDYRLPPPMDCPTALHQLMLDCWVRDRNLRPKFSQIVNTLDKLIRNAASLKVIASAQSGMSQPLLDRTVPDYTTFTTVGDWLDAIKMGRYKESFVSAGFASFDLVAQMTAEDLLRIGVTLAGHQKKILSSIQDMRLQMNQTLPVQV
Ros(h) (human), sequence (P08922 1883-2347 limits assumed): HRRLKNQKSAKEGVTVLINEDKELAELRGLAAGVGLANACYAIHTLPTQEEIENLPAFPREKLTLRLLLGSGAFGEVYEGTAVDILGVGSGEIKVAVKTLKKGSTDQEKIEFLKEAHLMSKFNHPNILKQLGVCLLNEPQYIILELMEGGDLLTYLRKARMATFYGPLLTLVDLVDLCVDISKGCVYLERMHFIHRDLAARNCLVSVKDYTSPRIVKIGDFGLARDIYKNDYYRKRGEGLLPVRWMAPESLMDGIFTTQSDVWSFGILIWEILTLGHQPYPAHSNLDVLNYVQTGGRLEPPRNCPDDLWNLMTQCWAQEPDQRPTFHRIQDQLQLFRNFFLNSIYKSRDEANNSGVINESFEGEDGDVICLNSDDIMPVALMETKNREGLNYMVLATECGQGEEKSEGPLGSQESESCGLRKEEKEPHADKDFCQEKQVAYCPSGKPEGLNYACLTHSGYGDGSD
IR(h), activated (human), sequence (P06213 1005-1310 limits assumed): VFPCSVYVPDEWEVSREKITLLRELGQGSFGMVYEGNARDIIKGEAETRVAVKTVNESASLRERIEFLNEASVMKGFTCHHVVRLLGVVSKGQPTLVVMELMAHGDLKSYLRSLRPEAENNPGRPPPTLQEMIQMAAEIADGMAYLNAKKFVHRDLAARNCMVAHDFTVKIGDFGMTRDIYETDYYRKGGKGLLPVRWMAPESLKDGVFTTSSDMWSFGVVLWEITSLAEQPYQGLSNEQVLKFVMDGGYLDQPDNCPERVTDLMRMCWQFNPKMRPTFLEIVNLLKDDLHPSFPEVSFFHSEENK
MST3(h) (human), sequence (Q9Y6E0 whole entry): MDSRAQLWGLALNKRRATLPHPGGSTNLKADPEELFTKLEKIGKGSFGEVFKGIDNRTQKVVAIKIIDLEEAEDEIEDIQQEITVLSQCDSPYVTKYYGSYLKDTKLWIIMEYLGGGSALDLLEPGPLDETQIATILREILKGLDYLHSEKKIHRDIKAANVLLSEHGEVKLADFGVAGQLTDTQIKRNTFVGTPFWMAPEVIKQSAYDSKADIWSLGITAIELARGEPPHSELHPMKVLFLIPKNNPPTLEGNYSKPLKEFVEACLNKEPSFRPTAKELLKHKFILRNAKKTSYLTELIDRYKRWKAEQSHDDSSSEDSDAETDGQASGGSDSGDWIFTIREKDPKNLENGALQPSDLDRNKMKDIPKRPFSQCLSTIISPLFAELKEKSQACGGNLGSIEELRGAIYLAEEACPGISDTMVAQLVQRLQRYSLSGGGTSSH
CDK7/cyclinH/MAT1(h) (human), sequence (P50613 whole entry, chain 1 of 3): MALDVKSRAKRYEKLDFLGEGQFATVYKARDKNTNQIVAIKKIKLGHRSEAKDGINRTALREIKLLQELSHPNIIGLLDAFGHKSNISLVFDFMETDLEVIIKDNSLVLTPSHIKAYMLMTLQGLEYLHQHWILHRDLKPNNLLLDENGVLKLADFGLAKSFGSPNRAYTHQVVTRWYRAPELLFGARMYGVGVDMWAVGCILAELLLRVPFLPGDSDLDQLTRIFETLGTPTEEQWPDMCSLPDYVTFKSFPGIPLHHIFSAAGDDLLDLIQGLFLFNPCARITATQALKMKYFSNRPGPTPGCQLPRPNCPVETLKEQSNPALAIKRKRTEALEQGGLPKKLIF
CDK7/cyclinH/MAT1(h) (human), sequence (P51946 whole entry, chain 2 of 3, further chain): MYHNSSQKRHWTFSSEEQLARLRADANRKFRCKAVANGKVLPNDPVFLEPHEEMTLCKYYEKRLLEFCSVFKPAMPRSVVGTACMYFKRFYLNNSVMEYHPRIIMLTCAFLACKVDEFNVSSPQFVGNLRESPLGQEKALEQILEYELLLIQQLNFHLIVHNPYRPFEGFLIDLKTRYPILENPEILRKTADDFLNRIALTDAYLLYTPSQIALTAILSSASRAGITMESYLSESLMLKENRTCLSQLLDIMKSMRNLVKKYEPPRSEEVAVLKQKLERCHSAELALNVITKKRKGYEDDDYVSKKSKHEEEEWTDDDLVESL
CDK7/cyclinH/MAT1(h) (human), sequence (P51948 whole entry, chain 3 of 3, further chain): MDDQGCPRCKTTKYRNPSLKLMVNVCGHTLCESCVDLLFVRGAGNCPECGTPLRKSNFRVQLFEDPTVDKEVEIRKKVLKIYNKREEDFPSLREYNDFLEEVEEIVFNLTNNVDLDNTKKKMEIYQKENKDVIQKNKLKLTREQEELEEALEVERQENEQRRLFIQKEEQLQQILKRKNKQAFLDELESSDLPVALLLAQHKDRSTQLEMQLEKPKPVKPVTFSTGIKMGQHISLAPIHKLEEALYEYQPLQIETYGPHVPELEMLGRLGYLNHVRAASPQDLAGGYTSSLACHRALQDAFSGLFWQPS
GCK(h) (human), sequence (Q12851 whole entry): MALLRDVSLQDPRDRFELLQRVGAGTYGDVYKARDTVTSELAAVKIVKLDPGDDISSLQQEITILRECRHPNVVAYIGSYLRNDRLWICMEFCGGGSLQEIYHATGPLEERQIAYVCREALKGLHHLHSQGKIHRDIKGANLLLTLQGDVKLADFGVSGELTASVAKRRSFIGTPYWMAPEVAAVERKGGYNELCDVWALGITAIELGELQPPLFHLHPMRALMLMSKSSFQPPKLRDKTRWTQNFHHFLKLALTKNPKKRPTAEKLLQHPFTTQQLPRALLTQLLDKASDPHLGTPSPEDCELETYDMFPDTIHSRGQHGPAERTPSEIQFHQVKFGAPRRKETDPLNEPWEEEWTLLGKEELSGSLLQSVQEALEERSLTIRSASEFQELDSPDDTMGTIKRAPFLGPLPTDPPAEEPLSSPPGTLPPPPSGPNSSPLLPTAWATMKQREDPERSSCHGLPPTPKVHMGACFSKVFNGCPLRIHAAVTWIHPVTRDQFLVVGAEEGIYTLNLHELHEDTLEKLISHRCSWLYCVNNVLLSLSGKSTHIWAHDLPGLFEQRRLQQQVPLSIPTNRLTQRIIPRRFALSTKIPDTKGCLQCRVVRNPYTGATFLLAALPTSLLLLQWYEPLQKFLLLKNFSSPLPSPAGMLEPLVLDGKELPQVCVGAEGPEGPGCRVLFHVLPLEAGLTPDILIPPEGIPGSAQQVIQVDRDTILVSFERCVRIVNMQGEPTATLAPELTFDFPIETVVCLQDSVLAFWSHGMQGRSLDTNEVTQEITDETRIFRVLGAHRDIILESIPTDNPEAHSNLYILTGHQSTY
Lck(h) (human), sequence (P06239 whole entry): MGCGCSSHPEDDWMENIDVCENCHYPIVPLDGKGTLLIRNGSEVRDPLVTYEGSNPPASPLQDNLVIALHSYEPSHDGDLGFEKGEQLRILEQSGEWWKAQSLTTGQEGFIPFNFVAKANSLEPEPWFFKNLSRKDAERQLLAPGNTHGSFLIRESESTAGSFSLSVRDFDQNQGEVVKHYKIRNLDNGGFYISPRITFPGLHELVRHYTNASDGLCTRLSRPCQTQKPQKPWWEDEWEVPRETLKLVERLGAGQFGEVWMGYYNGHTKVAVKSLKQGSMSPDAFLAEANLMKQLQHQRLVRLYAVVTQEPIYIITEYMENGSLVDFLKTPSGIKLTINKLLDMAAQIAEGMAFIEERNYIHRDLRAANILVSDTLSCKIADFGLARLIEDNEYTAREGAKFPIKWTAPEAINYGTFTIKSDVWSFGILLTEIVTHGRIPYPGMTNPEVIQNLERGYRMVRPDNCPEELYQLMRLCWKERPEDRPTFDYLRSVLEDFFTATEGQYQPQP

MMI-0100 (peptide)
% activity (NEK7(h) (human)): 97% | % activity (ARK5(h) (human)): 108% | % activity (IRAK1(h) (human)): 97% | % activity (CaMKIδ(h) (human)): 59% | % activity (PKCδ(h) (human)): 100% | % activity (ZIPK(h) (human)): 80% | % activity (cKit(h) (human)): 95% | % activity (PKG1α(h) (human)): 82% | % activity (PASK(h) (human)): 81% | % activity (GCK(h) (human)): 98% | % activity (IR(h), activated (human)): 127% | % activity (SIK(h) (human)): 113% | % activity (Fyn(h) (human)): 71% | % activity (HIPK3(h) (human)): 105% | % activity (Txk(h) (human)): 87% | % activity (Ab1(H396P)(h) (human)): 130% | % activity [1]: 89% | % activity (TAO2(h) (human)): 95% | % activity (Pim-1(h) (human)): 44% | % activity (Met(Y1248D)(h) (human)): 87% | % activity (PAR-1Bα(h) (human)): 62% | % activity (LOK(h) (human)): 37% | % activity (WNK2(h) (human)): 95% | % activity (BrSK1(h) (human)): 100% | % activity (CHK1(h) (human)): 97% | % activity (IKKβ(h) (human)): 105% | % activity (MST3(h) (human)): 104% | % activity (PKCη(h) (human)): 105% | % activity (PKG1β(h) (human)): 71% | % activity (ErbB4(h) (human)): 73% | % activity (Lck(h) (human)): 346% | % activity (CHK2(I157T)(h) (human)): 97% | % activity (FGFR2(h) (human)): 49% | % activity (EphA7(h) (human)): 193% | % activity (MAPKAP-K2(h) (human)): 19% | % activity (JNK3(h) (human)): 104% | % activity (MELK(h) (human)): 74% | % activity (mTOR/FKBP12(h) (human)): 117% | % activity (ULK2(h) (human)): 123% | % activity (EphB4(h) (human)): 62% | % activity [2]: 93% | % activity (EphB3(h) (human)): 109% | % activity (Ros(h) (human)): 107% | % activity (PDGFRα(D842V)(h) (human)): 103% | % activity (PKBβ(h) (human)): 284% | % activity (CDK5/p25(h) (human)): 114% | % activity (Ret(V804M)(h) (human)): 92% | % activity (EphA8(h) (human)): 181% | % activity (Pyk2(h) (human)): 113% | % activity (Met(h) (human)): 104% | % activity (TBK1(h) (human)): 106% | % activity (Tec(h)activated (human)): 100% | % activity (CLK3(h) (human)): 108% | % activity (ULK3(h) (human)): 142% | % activity (GRK6(h) (human)): 131% | % activity (Met(Y1248C)(h) (human)): 77%

MMI-0200 (peptide)
% activity (NEK7(h) (human)): 96% | % activity (ARK5(h) (human)): 93% | % activity (IRAK1(h) (human)): 101% | % activity (CaMKIδ(h) (human)): 47% | % activity (PKCδ(h) (human)): 101% | % activity (ZIPK(h) (human)): 67% | % activity (cKit(h) (human)): 110% | % activity (PKG1α(h) (human)): 70% | % activity (PASK(h) (human)): 60% | % activity (GCK(h) (human)): 99% | % activity (IR(h), activated (human)): 105% | % activity (SIK(h) (human)): 102% | % activity (Fyn(h) (human)): 75% | % activity (HIPK3(h) (human)): 105% | % activity (Txk(h) (human)): 98% | % activity (Ab1(H396P)(h) (human)): 121% | % activity [1]: 67% | % activity (TAO2(h) (human)): 93% | % activity (Pim-1(h) (human)): 18% | % activity (Met(Y1248D)(h) (human)): 118% | % activity (PAR-1Bα(h) (human)): 110% | % activity (LOK(h) (human)): 67% | % activity (WNK2(h) (human)): 94% | % activity (BrSK1(h) (human)): 93% | % activity (CHK1(h) (human)): 115% | % activity (IKKβ(h) (human)): 109% | % activity (MST3(h) (human)): 95% | % activity (PKCη(h) (human)): 101% | % activity (PKG1β(h) (human)): 57% | % activity (ErbB4(h) (human)): 82% | % activity (Lck(h) (human)): 113% | % activity (CHK2(I157T)(h) (human)): 85% | % activity (FGFR2(h) (human)): 73% | % activity (EphA7(h) (human)): 220% | % activity (MAPKAP-K2(h) (human)): 35% | % activity (JNK3(h) (human)): 90% | % activity (MELK(h) (human)): 59% | % activity (mTOR/FKBP12(h) (human)): 118% | % activity (ULK2(h) (human)): 132% | % activity (EphB4(h) (human)): 131% | % activity [2]: 108% | % activity (EphB3(h) (human)): 128% | % activity (Ros(h) (human)): 86% | % activity (PDGFRα(D842V)(h) (human)): 107% | % activity (PKBβ(h) (human)): 250% | % activity (CDK5/p25(h) (human)): 97% | % activity (Ret(V804M)(h) (human)): 105% | % activity (EphA8(h) (human)): 133% | % activity (Pyk2(h) (human)): 127% | % activity (Met(h) (human)): 71% | % activity (TBK1(h) (human)): 98% | % activity (Tec(h)activated (human)): 77% | % activity (CLK3(h) (human)): 76% | % activity (ULK3(h) (human)): 164% | % activity (GRK6(h) (human)): 132% | % activity (Met(Y1248C)(h) (human)): 141%

Source: patent US20160200782A1
